According to EP4722237A1, “METHOD FOR DETECTING BIOLOGICAL ACTIVITY OF INSULIN OR ANALOGUE THEREOF AND KIT” (Sunshine Lake Pharma Co., Ltd., priority 2023, dated 2024):

Experiments:
insulin receptor B = target: T1, insulin receptor B (Homo sapiens, UniProt P06213); assay: Luciferase reporter gene detection method (HEK293/IRB-STAT5b-03-Luciferase cells, luminescence signal); assay type: cell-based; details: after stimulation of cells
T1 construct: expressed in transfected cells; host or cells: HEK293 (HEK293-IRB monoclonal line; HEK293/IRB-STAT5b-03-Luciferase 001#clone)
Experimental: ① 0.6 mM insulin glargine reference solution: An appropriate amount of insulin glargine reference was weighed, dissolved completely in 0.01 M HCL and diluted to 0.6 mM, and mixed thoroughly.
② 0.6 mM Insulin Glargine Test Solution: An appropriate amount of insulin glargine injection solution was taken.
③ 15000 nM Reference/Test Solution Stock Solution: 780 µl of 0.01 M hydrochloric acid solution was added to 20 µl of a 0.6 mM insulin glargine reference/test solution and mixed thoroughly.
④ […] control/test solution: 780 µl of DMEM medium containing 1% FBS (fetal bovine serum) was added to 20 µl of a 15000 nM reference/test solution.
⑤ Serial dilutions of control/test compounds: Dilutions were performed in a 96-well plate according to the method shown in Table 1.
The culture flask was taken out of the incubator, the culture medium was discarded, and 2 ml of DPBS (sterile saline) buffer was added and gently washed twice. 1 ml of DPBS and 1 ml of trypsin solution were slowly added along the cell-free side of the flask to digest the cells for approximately 2 min. […]
After 15 h of incubation, the 384-well plate was removed from the incubator and allowed to stand at room temperature for approximately 5 min. […] After 3 minutes, the luminescence signal was detected in the LUM mode on a multi-functional microplate reader. […]

insulin IR β receptor = insulin IR β receptor (Homo sapiens, UniProt P06213); assay: HTRF kit method (insulin receptor phosphorylation); assay type: cell-based; details: specificity comparison, Figure 6
Source text: Currently, commercial kits such as HTRF (homogeneous time-resolved fluorescence) and AlphaElisa are commonly used to assess insulin activity. These assays measure insulin IR β receptor phosphorylation levels to characterize insulin's cellular bioactivity. On the one hand, commercial test kits such as HTRF and AlphaElisa are expensive and have high detection costs; on the other hand, technical means such as HTRF and AlphaElisa are relatively complicated to operate, usually requiring the addition of insulin drugs to co-incubate with cells, then adding lysis buffer for incubation and lysis, and then adding the corresponding phosphorylated antibody solution for incubation, and finally testing. Under normal circumstances, the sample volume of each step of these kits needs to be controlled to 4~8 µl, which requires a high level of operational skills of the analyst.
Two different analysts used the same batch of test products (prepared in 6 parallel portions) and reference products to perform tests using the HTRF kit method on different dates.

In the case of liraglutide, the dose-effect relationship (insulin receptor B) was “no obvious dose-effect relationship” and the “response in HTRF kit assay” value (insulin IR β receptor) was “no response”.
